In US20020028453A1 (CURIS, published 2002):

Biological target: T1, α-2 macroglobulin (Homo sapiens (Human), UniProt P01023 24-1474, Native alpha-2-macroglobulin is a glycosylated homotetramer (disulfide-linked dimers) with an internal thioester; one subunit is given.)
T1 construct: also called alpha-2 macroglobulin
T1 sequence: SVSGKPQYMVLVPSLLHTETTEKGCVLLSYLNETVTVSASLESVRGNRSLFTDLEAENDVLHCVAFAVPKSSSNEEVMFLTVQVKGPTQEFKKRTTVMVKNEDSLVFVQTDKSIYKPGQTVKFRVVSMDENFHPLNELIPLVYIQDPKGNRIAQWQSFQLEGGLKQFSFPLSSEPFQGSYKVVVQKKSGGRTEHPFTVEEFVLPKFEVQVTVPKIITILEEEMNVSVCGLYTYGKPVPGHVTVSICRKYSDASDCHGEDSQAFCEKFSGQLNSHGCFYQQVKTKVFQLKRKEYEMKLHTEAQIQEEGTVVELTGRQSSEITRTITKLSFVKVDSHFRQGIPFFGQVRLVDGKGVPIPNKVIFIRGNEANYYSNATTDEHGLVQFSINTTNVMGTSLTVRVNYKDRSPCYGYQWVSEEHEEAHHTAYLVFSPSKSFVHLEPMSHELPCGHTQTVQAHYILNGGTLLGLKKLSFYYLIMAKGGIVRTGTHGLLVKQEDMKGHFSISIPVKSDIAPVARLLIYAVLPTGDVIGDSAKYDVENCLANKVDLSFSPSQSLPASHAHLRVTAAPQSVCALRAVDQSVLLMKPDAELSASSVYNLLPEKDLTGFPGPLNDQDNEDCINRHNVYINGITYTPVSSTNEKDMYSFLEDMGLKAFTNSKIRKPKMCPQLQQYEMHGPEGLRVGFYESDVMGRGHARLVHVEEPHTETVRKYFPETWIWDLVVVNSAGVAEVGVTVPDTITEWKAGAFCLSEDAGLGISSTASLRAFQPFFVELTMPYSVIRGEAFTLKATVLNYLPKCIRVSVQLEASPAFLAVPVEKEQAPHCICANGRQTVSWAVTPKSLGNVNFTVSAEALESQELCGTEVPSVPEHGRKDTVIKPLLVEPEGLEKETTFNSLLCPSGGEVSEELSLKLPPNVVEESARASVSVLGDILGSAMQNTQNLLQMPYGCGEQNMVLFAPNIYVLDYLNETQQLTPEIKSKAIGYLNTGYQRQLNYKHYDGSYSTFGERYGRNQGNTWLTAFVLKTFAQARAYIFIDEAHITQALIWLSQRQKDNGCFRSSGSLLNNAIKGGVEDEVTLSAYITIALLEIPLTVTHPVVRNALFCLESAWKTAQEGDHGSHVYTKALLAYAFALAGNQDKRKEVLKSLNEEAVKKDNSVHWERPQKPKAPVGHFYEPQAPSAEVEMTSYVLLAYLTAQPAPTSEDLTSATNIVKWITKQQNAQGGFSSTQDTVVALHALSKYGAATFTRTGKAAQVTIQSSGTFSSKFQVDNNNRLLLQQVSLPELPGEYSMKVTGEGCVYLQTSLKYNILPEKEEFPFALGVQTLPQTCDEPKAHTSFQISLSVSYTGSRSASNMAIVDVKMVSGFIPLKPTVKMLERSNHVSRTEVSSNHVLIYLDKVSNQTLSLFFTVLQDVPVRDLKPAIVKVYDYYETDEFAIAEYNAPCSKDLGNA
Assay: competition binding assay, immobilized α-2 macroglobulin
Experimental: OP-1 was determined to interact specifically with α-2 macroglobulin in a standard competition binding assay, using immobilized, commercially available α-2 macroglobulin, and labeled and unlabeled OP-1 protein. […] This N-terminal portion of the protein, which is not part of the crystal structure, is positively charged and likely is highly flexible in solution.

B1: Truncated mature OP-1 (ligand, UniProt P18075 315-431, looked up)
chain: MANVAENSSSDQRQACKKHELYVSFRDLGWQDWIIAPEGYAAYYCEGECAFPLNSYMNATNHAIVQTLVHFINPETVPKPCCAPTQLNAISVLYFDDSSNVILKKYRNMVVRACGCH
notes: range 23-139; The range is on mature-protein numbering (His 139 = C-terminus); also called truncated mature OP-1 (first 22 amino acids cleaved by trypsin)
B1 was tested, and the “fold less affinity (against untruncated OP-1)” value was 10 fold.
